Assay results reported in publication PMC9039505, “Ethylene precisely regulates anthocyanin synthesis in apple via a module comprising MdEIL1, MdMYB1, and MdMYB17”.

What was measured:
[1] = target: T1, MdMYB17 (apple, UniProt D9ZJ54 1-196); test: EMSA; LightShift Chemiluminescent EMSA kit; buffer, salt, pH and temperature not stated; cold competitor 200-300-fold; details: protein: recombinant; tags: His (pET-32a fusion); label: biotin; blunt
T1 sequence: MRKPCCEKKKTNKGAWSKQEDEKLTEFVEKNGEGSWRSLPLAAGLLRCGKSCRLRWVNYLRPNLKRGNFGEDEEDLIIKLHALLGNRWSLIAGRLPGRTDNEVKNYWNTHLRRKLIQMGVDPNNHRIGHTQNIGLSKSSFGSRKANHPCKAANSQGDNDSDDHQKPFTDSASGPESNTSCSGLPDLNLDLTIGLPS

[2] = target: T1, MdMYB17; test: competition; unlabeled mutant competitor; LightShift Chemiluminescent EMSA kit; buffer, salt, pH and temperature not stated; cold competitor 200-300-fold; details: protein: recombinant; tags: His (pET-32a fusion); blunt
[3] = target: T2, MdEIL1 (apple, UniProt D5L144 1-659); test: EMSA; LightShift Chemiluminescent EMSA kit; buffer, salt, pH and temperature not stated; cold competitor 200-300-fold; details: protein: recombinant; tags: His (pET-32a fusion); label: biotin; blunt
T2 sequence: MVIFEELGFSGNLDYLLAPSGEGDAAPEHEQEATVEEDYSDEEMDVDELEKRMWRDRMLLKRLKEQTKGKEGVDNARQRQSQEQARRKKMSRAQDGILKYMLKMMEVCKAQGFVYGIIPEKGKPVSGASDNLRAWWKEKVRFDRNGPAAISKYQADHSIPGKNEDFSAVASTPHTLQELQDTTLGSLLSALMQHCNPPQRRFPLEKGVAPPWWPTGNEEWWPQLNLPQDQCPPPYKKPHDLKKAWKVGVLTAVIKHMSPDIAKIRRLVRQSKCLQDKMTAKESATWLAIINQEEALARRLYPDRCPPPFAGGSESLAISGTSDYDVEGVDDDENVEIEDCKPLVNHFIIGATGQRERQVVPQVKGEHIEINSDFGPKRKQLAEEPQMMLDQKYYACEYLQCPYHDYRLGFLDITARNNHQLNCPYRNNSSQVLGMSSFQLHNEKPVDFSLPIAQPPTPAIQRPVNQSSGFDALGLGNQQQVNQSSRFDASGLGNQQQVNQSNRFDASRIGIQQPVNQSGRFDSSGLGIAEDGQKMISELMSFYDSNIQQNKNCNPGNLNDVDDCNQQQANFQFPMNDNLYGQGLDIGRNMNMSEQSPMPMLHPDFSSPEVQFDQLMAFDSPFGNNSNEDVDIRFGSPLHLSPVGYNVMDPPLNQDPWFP

[4] = target: T3, MdMYB1 (apple, UniProt A0SQ35 1-243); test: as above; details: protein: recombinant; tags: His (pET-32a fusion); label: biotin; blunt
T3 sequence: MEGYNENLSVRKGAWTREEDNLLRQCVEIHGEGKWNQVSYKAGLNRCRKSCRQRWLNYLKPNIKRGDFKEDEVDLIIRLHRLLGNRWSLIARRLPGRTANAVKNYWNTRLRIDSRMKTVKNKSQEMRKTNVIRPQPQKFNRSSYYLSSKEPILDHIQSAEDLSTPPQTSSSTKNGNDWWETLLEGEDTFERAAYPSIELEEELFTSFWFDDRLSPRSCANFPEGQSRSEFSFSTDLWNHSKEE

Binder | binding result [1] | binding result [2] | other results
MdMYB1 promoter MBS probe (dsDNA) DNA 1: AGACTGGTAGCTATTAACAACTGTTGGAATGTTTTAAACT DNA 2: AGTTTAAAACATTCCAACAGTTGTTAATAGCTACCAGTCT | binds |  | 
MdMYB1 promoter MBS mutated (dsDNA) DNA 1: AGACTGGTAGCTATTAACGACTATTGGAATGTTTTAAACT DNA 2: AGTTTAAAACATTCCAATAGTCGTTAATAGCTACCAGTCT |  | no binding | 
MdMYB17 promoter ATGTA1 probe (dsDNA) DNA 1: TCAAATTAATTATAAATTAAATGTAACCATGACAAGGAAAGTGTC DNA 2: GACACTTTCCTTGTCATGGTTACATTTAATTTATAATTAATTTGA |  |  | binding result [3]: binds
MdEIL1 promoter MRE2 probe (dsDNA) DNA 1: ATTGTTCTGTTTATTGTTTAGGTTAATCTGTTCTTATCTGC DNA 2: GCAGATAAGAACAGATTAACCTAAACAATAAACAGAACAAT | binds |  | 
MdDFR promoter MBS probe (dsDNA) DNA 1: AAACTCCCTAAATAAACCAGTTGTACTGGTGGATAGGCCT DNA 2: AGGCCTATCCACCAGTACAACTGGTTTATTTAGGGAGTTT | binds |  | 
MdDFR promoter MBS mutated (dsDNA) DNA 1: AAACTCCCTAAATAAACCGGTCGTACTGGTGGATAGGCCT DNA 2: AGGCCTATCCACCAGTACGACCGGTTTATTTAGGGAGTTT |  | no binding | 
MdUFGT promoter MBS probe (dsDNA) DNA 1: GTCAAGTATGGTACAAACAACTGCAATAAAATATTGCCAC DNA 2: GTGGCAATATTTTATTGCAGTTGTTTGTACCATACTTGAC | binds |  | 
MdUFGT promoter MBS mutated (dsDNA) DNA 1: GTCAAGTATGGTACAAACGACTACAATAAAATATTGCCAC DNA 2: GTGGCAATATTTTATTGTAGTCGTTTGTACCATACTTGAC |  | no binding | 
MdMYB17 promoter MBS3 probe (dsDNA) DNA 1: AGATGTGTAGTTAAATTACCCAACTGTAAGTCAAGCGGAGTAGTCA DNA 2: TGACTACTCCGCTTGACTTACAGTTGGGTAATTTAACTACACATCT |  |  | binding result [4]: binds
